Source: patent US20070077617
Entries after “also recorded” stand apart in the source; their conditions may differ.

Tests used:
[1] = biological target: fusion protein PRS
[2] = biological target: human calcitonin precursor fusion protein PCT
[3] = biological target: fusion protein PRM
[4] = biological target: fusion protein PA3
[5] = biological target: fusion protein PA3D23′
[6] = biological target: fusion protein PA2′
[7] = biological target: fusion protein PA1′A3′
[8] = biological target: fusion protein PRD
[9] = biological target: fusion protein PRL
[10] = biological target: fusion protein PRV
[11] = biological target: fusion protein PA2′3′
fusion protein PA2′3′, sequence (chain, as listed by the source): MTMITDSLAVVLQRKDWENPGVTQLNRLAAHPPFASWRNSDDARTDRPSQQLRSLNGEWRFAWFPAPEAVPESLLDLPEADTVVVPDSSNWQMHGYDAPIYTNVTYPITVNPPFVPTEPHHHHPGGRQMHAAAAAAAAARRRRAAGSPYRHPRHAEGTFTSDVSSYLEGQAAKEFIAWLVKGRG

[12] = biological target: fusion protein PRF
[13] = biological target: fusion protein PRC
[14] = biological target: fusion protein PRE
[15] = biological target: fusion protein PA10
fusion protein PA10, sequence (chain, as listed by the source): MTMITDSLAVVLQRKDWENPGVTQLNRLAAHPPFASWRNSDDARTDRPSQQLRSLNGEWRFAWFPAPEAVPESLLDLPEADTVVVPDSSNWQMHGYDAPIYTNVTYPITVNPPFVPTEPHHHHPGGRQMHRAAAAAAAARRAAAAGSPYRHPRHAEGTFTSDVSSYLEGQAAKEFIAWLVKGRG

[16] = biological target: fusion protein PRY
[17] = biological target: fusion protein PRH
[18] = biological target: fusion protein PRMT
[19] = biological target: fusion protein PA3′
fusion protein PA3′, sequence (chain, as listed by the source): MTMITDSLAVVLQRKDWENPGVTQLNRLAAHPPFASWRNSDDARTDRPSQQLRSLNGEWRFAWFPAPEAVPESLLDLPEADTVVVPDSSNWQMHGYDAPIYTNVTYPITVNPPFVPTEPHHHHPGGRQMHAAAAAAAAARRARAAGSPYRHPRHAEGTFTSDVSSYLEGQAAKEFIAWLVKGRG

[20] = biological target: fusion protein PRP
[21] = biological target: fusion protein PRR
[22] = biological target: fusion protein PA
[23] = biological target: fusion protein PRI
[24] = biological target: fusion protein PA9
fusion protein PA9, sequence (chain, as listed by the source): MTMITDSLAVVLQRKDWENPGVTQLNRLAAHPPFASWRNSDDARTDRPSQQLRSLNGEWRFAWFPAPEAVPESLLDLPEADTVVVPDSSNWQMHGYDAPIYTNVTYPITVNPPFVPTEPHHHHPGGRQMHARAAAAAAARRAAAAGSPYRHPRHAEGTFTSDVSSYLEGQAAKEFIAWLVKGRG

[25] = biological target: fusion protein PA5
fusion protein PA5, sequence (chain, as listed by the source): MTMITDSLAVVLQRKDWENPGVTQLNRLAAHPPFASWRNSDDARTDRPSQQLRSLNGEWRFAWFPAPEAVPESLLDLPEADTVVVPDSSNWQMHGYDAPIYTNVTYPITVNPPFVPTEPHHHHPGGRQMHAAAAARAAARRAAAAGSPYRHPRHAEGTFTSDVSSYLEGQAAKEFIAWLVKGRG

[26] = biological target: fusion protein PA4
fusion protein PA4, sequence (chain, as listed by the source): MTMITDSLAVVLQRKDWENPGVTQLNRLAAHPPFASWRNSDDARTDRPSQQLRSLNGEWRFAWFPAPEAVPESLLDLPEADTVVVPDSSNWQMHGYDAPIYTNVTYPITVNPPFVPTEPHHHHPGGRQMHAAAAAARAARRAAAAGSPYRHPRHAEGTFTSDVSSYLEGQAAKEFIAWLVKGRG

[27] = biological target: fusion protein PRG
[28] = biological target: fusion protein PRW
[29] = biological target: fusion protein PA8
fusion protein PA8, sequence (chain, as listed by the source): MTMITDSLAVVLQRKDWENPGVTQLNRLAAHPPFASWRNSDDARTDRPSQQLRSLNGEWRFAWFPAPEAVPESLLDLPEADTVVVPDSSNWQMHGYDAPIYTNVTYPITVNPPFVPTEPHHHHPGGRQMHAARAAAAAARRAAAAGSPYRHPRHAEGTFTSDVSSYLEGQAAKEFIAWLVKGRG

[30] = biological target: fusion protein PA323′
fusion protein PA323′, sequence (chain, as listed by the source): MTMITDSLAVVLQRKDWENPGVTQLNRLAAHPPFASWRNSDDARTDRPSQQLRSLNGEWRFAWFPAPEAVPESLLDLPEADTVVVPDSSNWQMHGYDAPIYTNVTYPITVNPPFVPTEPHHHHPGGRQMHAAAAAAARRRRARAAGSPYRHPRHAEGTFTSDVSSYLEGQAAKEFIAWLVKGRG

[31] = biological target: fusion protein PA6
fusion protein PA6, sequence (chain, as listed by the source): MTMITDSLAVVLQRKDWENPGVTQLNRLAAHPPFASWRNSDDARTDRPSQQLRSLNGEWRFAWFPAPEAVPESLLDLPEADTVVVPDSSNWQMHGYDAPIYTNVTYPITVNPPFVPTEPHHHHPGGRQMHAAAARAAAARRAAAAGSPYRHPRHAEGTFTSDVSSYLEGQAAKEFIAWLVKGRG

[32] = biological target: fusion protein PA7
fusion protein PA7, sequence (chain, as listed by the source): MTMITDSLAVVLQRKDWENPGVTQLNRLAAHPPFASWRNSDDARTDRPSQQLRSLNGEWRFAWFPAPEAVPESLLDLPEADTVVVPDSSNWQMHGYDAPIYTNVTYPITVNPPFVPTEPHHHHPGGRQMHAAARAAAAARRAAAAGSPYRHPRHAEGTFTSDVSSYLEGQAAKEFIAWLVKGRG

[33] = biological target: fusion protein PMT
fusion protein PMT, sequence (chain, as listed by the source): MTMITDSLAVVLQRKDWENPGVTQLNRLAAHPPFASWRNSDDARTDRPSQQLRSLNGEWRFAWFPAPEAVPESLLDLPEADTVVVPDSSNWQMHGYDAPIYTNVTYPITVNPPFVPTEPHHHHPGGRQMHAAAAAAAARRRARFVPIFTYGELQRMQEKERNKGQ

[34] = biological target: fusion protein PRN
[35] = biological target: fusion protein PRT
[36] = biological target: fusion protein PA5′
fusion protein PA5′, sequence (chain, as listed by the source): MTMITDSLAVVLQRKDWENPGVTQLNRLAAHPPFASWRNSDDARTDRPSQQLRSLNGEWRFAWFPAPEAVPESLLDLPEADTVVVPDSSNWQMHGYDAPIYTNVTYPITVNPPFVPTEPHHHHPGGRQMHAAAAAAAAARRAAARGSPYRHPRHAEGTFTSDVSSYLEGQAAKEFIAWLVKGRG

[37] = biological target: fusion protein PRK
[38] = biological target: fusion protein PA2
fusion protein PA2, sequence (chain, as listed by the source): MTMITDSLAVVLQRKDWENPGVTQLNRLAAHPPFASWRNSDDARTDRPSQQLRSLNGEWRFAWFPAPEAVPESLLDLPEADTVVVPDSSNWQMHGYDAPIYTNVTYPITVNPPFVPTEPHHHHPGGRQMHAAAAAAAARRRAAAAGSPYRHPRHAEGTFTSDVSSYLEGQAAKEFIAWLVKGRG

[39] = biological target: fusion protein PRA
fusion protein PRA, sequence (chain, as listed by the source): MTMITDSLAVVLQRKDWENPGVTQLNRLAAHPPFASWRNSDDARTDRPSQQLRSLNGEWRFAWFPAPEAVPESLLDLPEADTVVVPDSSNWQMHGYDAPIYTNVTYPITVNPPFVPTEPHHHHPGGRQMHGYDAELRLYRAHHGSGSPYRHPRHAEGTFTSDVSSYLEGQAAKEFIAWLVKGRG

[40] = biological target: fusion protein PRQ
[41] = biological target: fusion protein PA4D23′
fusion protein PA4D23′, sequence (chain, as listed by the source): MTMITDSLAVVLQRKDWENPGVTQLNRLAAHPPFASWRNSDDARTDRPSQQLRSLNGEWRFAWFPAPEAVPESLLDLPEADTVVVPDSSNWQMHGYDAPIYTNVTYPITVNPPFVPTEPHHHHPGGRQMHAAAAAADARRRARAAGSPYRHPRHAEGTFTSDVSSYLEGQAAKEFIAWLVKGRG

[42] = biological target: fusion protein PA23′
fusion protein PA23′, sequence (chain, as listed by the source): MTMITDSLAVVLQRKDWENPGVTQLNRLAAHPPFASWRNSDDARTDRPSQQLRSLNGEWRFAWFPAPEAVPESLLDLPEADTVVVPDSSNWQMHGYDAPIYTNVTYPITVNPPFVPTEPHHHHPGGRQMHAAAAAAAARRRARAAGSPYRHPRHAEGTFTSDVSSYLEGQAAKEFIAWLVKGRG

[43] = biological target: fusion protein PA1A3′
fusion protein PA1A3′, sequence (chain, as listed by the source): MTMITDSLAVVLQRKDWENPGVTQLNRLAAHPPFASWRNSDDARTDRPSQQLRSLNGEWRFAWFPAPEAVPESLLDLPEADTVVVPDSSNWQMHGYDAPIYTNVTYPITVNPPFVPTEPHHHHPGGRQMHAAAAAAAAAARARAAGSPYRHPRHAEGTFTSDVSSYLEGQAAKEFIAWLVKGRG

[44] = biological target: fusion protein PA5D23′
fusion protein PA5D23′, sequence (chain, as listed by the source): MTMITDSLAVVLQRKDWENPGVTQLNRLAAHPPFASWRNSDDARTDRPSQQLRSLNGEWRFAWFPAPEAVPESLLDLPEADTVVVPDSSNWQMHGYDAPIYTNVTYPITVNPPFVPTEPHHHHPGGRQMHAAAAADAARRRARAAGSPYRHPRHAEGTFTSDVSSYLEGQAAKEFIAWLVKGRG

[45] = biological target: human adrenocorticotropic hormone(1-24) fusion protein PAC
human adrenocorticotropic hormone(1-24) fusion protein PAC, sequence (chain, as listed by the source): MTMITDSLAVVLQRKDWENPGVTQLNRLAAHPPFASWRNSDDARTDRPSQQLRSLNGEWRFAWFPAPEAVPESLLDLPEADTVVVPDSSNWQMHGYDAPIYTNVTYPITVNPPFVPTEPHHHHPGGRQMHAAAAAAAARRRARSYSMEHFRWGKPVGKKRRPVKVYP

[46] = biological target: fusion protein PA4′
fusion protein PA4′, sequence (chain, as listed by the source): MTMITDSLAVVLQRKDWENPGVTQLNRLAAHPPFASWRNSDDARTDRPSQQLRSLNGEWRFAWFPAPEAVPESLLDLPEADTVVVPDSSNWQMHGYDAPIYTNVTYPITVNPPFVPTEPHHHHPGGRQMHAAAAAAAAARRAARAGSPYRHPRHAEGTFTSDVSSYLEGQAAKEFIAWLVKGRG

fusion protein PA3D23′, sequence (chain, as listed by the source): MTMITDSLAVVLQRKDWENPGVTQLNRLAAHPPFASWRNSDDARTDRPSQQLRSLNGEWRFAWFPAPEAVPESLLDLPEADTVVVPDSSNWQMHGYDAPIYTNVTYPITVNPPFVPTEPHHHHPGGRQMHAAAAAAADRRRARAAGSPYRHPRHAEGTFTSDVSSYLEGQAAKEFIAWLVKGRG
fusion protein PA1′A3′, sequence (chain, as listed by the source): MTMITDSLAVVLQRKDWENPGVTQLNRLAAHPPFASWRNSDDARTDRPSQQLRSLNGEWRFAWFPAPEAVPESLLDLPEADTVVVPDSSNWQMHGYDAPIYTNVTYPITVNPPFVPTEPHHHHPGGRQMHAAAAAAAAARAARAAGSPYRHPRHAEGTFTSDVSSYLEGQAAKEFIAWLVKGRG
fusion protein PA2′, sequence (chain, as listed by the source): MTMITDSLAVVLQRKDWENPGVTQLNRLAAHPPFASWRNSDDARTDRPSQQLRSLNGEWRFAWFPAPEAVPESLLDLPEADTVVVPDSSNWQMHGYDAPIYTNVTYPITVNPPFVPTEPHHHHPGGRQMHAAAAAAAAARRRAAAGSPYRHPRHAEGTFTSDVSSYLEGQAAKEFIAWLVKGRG
fusion protein PA3, sequence (chain, as listed by the source): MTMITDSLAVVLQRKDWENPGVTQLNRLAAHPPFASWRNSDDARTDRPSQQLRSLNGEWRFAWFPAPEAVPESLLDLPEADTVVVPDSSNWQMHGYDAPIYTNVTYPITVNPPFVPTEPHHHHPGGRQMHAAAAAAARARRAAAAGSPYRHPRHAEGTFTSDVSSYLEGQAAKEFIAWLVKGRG
human calcitonin precursor fusion protein PCT, sequence (chain, as listed by the source): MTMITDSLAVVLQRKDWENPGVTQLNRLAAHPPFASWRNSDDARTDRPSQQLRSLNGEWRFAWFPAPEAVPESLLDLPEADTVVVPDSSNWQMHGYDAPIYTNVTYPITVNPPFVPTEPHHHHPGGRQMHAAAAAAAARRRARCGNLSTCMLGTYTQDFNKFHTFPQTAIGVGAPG

B1: OmpT protease (wild-type, E. coli mature OmpT protease) (protein)
chain: STETLSFTPDNINADISLGTLSGKTKERVYLAEEGGRKVSQLDWKFNNAAIIKGAINWDLMPQISIGAAGWTTLGSRGGNMVDQDWMDSSNPGTWTDESRHPDTQLNYANEFDLNIKGWLLNEPNYRLGLMAGYQESRYSFTARGGSYIYSSEEGFRDDIGSFPNGERAIGYKQRFKMPYIGLTGSYRYEDFELGGTFKYSGWVESSDNDEHYDPGKRITYRSKVKDQNYYSVAVNAGYYVTPNAKVYVEGAWNRVTNKKGNTSLYDHNNNTSDYSKNGAGIENYNFITTAGLKYTF
relative cleavage efficiency [1]: 3.9%
cleavage (HPLC, mass analysis) [2]: The fusion protein PCT was cleaved at Arg^139-Arg^140 and Arg^140-Arg^141 by wild-type OmpT protease, releasing RRAR-CT and RAR-CT
relative cleavage efficiency [3]: < 3%
cleavage (HPLC, mass analysis) [4]: All of the PAn proteins underwent cleavage by OmpT protease at the same site as PA
cleavage efficiency against PA [4]: Increase in cleavage efficiency was seen for all of the PAn proteins except for PA2 and PA2′
cleavage (HPLC, mass analysis) [5]: the major cleavage site of PA5D23′, PA4D23′ and PA3D23′ is Arg^143-Ala^144
cleavage at Arg^139-Arg^140 and Arg^140-Arg^141 [5]: no cleavage was detected at Arg^139-Arg^140 and Arg^140-Arg^141, similar to PA4D23′
cleavage efficiency at Arg^143-Ala^144 against Arg^140-Arg^141 of PA [5]: about the same as the cleavage efficiency at Arg^140-Arg^141 of PA, and lower than PA4D23′
cleavage (HPLC, mass analysis) [6]: All of the PAn proteins underwent cleavage by OmpT protease at the same site as PA, while PA2, PA2′ and PA3′ also underwent cleavage at other sites
cleavage efficiency against PA [6]: the cleavage efficiencies of PA2 and PA2′ were reduced to about ⅓
cleavage (HPLC, mass analysis) [7]: PA1A3′ and PA1′A3′ were both cleaved at Arg^143-Ala^144; also recorded: Cleavage was also confirmed at Arg^140-Ala^141 in PA1′A3′
cleavage efficiency against PA [7]: all of the cleavage efficiencies were lower than the cleavage efficiency at Arg^140-Arg^141 of PA
relative cleavage efficiency [8]: less than 3%
relative cleavage efficiency [9]: less than 3%
relative cleavage efficiency [10]: 3.5%
cleavage (HPLC, mass analysis) [11]: It was confirmed that PA23′, PA323′ and PA2′3′ are cleaved at Arg^143-Ala^144
cleavage efficiency at Arg^143-Ala^144 against Arg^140-Arg^141 of PA [11]: low at 63% of the cleavage efficiency at Arg^140-Arg^141 of PA
relative cleavage efficiency [12]: < 3%
relative cleavage efficiency [13]: 3.1%
relative cleavage efficiency [14]: less than 3%
cleavage (HPLC, mass analysis) [15]: All of the PAn proteins underwent cleavage by OmpT protease at the same site as PA
cleavage efficiency against PA [15]: Increase in cleavage efficiency was seen for all of the PAn proteins except for PA2 and PA2′
relative cleavage efficiency [16]: < 3%
relative cleavage efficiency [17]: less than 3%
cleavage (SDS-PAGE) [18]: no cleavage of PRMT was detected
cleavage (HPLC, mass analysis) [19]: All of the PAn proteins underwent cleavage by OmpT protease at the same site as PA, while PA2, PA2′ and PA3′ also underwent cleavage at other sites
cleavage efficiency against PA [19]: Increase in cleavage efficiency was seen for all of the PAn proteins except for PA2 and PA2′
cleavage efficiency at Arg^140-Arg^141 (PA = 100%) [19]: cleavage efficiencies: 220%, 73%
cleavage efficiency at Arg^143-Ala^144 (PA = 100%) [19]: cleavage efficiencies: 220%, 73%
relative cleavage efficiency [20]: less than 3%
relative cleavage efficiency [21]: 100%
cleavage efficiency (reference) [22]: the cleavage efficiency of the fusion protein PA is 100%
relative cleavage efficiency [23]: < 3%
cleavage (HPLC, mass analysis) [24]: All of the PAn proteins underwent cleavage by OmpT protease at the same site as PA
cleavage efficiency against PA [24]: Increase in cleavage efficiency was seen for all of the PAn proteins except for PA2 and PA2′
cleavage (HPLC, mass analysis) [25]: All of the PAn proteins underwent cleavage by OmpT protease at the same site as PA
cleavage efficiency against PA [25]: Increase in cleavage efficiency was seen for all of the PAn proteins except for PA2 and PA2′
cleavage (HPLC, mass analysis) [26]: All of the PAn proteins underwent cleavage by OmpT protease at the same site as PA
cleavage efficiency against PA [26]: PA4 had the highest cleavage efficiency of about 5 times that of PA
relative cleavage efficiency [27]: less than 3%
relative cleavage efficiency [28]: less than 3%
cleavage (HPLC, mass analysis) [29]: All of the PAn proteins underwent cleavage by OmpT protease at the same site as PA
cleavage efficiency against PA [29]: Increase in cleavage efficiency was seen for all of the PAn proteins except for PA2 and PA2′
cleavage (HPLC, mass analysis) [30]: It was confirmed that PA23′, PA323′ and PA2′3′ are cleaved at Arg^143-Ala^144
cleavage at Arg^140-Arg^141 against Arg^143-Ala^144 [30]: at 59% the cleavage efficiency at Arg^143-Ala^144
cleavage efficiency at Arg^143-Ala^144 against Arg^140-Arg^141 of PA [30]: also 2.9 times the cleavage efficiency at Arg^140-Arg^141 of PA
cleavage (HPLC, mass analysis) [31]: All of the PAn proteins underwent cleavage by OmpT protease at the same site as PA
cleavage efficiency against PA [31]: Increase in cleavage efficiency was seen for all of the PAn proteins except for PA2 and PA2′
cleavage (HPLC, mass analysis) [32]: All of the PAn proteins underwent cleavage by OmpT protease at the same site as PA
cleavage efficiency against PA [32]: Increase in cleavage efficiency was seen for all of the PAn proteins except for PA2 and PA2′
cleavage (SDS-PAGE, HPLC) [33]: cleavage of the fusion protein PMT by OmpT protease was confirmed
release of human motilin (cleavage at Arg^143-Phe^144) [33]: only a very slight amount of peptide cleavage fragment of Arg^143-Phe^144, i.e. human motilin, was detected by mass analysis
relative cleavage efficiency: RAR-motilin (Arg^140-Arg^141) ([33]; scale: relative): 23
relative cleavage efficiency: RRAR-motilin (Arg^139-Arg^140) ([33]; scale: relative): 100
relative cleavage efficiency [34]: < 3%
relative cleavage efficiency [35]: < 3%
cleavage (HPLC, mass analysis) [36]: All of the PAn proteins underwent cleavage by OmpT protease at the same site as PA
cleavage efficiency against PA [36]: Increase in cleavage efficiency was seen for all of the PAn proteins except for PA2 and PA2′
relative cleavage efficiency [37]: 88%
cleavage (HPLC, mass analysis) [38]: All of the PAn proteins underwent cleavage by OmpT protease at the same site as PA, while PA2, PA2′ and PA3′ also underwent cleavage at other sites
cleavage efficiency against PA [38]: the cleavage efficiencies of PA2 and PA2′ were reduced to about ⅓
relative cleavage efficiency [39]: 5.4%
relative cleavage efficiency [40]: less than 3%
cleavage (HPLC, mass analysis) [41]: the major cleavage site of PA5D23′, PA4D23′ and PA3D23′ is Arg^143-Ala^144
cleavage at Arg^139-Arg^140 and Arg^140-Arg^141 [41]: no cleavage was detected at Arg^139-Arg^140 and Arg^140-Arg^141 as was detected with PA23′
cleavage efficiency at Arg^143-Ala^144 against Arg^140-Arg^141 of PA [41]: low compared to PA23′, but twice the cleavage efficiency at Arg^140-Arg^141 of PA
cleavage (HPLC, mass analysis) [42]: It was confirmed that PA23′, PA323′ and PA2′3′ are cleaved at Arg^143-Ala^144
cleavage efficiency at Arg^143-Ala^144 against Arg^140-Arg^141 of PA [42]: 2.9 times the cleavage efficiency at Arg^140-Arg^141 of PA
cleavage (HPLC, mass analysis) [43]: PA1A3′ and PA1′A3′ were both cleaved at Arg^143-Ala^144
cleavage efficiency against PA [43]: all of the cleavage efficiencies were lower than the cleavage efficiency at Arg^140-Arg^141 of PA
cleavage (HPLC, mass analysis) [44]: the major cleavage site of PA5D23′, PA4D23′ and PA3D23′ is Arg^143-Ala^144
cleavage at Arg^140-Arg^141 [44]: cleavage was also observed at Arg^140-Arg^141
cleavage efficiency at Arg^143-Ala^144 against Arg^140-Arg^141 of PA [44]: 1.9 times the cleavage efficiency at Arg^140-Arg^141 of PA
cleavage (HPLC, mass analysis) [45]: The fusion protein PAC was cleaved at Arg^143-Ser^144 by wild-type OmpT protease to release human adrenocorticotropic hormone(1-24)
cleavage (HPLC, mass analysis) [46]: All of the PAn proteins underwent cleavage by OmpT protease at the same site as PA
cleavage efficiency against PA [46]: Increase in cleavage efficiency was seen for all of the PAn proteins except for PA2 and PA2′
